{"source": "paper PMC10548113", "about": "“Modeling a variant of unknown significance in the Drosophila ortholog of the human cardiogenic gene NKX2.5”", "binders": {"B1": {"name": "Mp Tin1 site (dsDNA)", "DNA 1": "GGACTCTTTGGCTGAAGTGTCCGGTGAAA", "DNA 2": "TTTCACCGGACACTTCAGCCAAAGAGTCC"}}, "key": {"MBP-Tin R321N HD": {"target": "T1, MBP-Tin R321N HD (Drosophila melanogaster, UniProt P22711 301-360, R321N)", "T1 sequence": "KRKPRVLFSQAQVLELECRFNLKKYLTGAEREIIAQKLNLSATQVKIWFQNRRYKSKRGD", "assay": "EMSA; 1.5 ug protein, equal to WT; EMSA: 40 mM KCl, 15 mM HEPES pH 7.9, 1 mM EDTA, 0.5 mM DTT, 5% glycerol, 4 ug poly-dIdC; temperature not stated", "conditions": "protein: recombinant; tags: N-terminal MBP; label: radioactive (probe); only one strand given"}, "MBP-Tin HD (WT)": {"target": "T2, MBP-Tin HD (WT) (Drosophila melanogaster, UniProt P22711 301-360)", "T2 sequence": "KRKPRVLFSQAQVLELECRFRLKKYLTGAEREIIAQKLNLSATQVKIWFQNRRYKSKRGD", "assay": "EMSA; 1.5 ug protein; competed by 300-fold excess unlabelled WT; EMSA: 40 mM KCl, 15 mM HEPES pH 7.9, 1 mM EDTA, 0.5 mM DTT, 5% glycerol, 4 ug poly-dIdC; temperature not stated", "conditions": "protein: recombinant; tags: N-terminal MBP; label: radioactive (probe); only one strand given"}}, "data": [{"binder": "B1", "values": [{"measurement": "binding signal", "setting": "MBP-Tin R321N HD", "value": "7 % of WT band intensity"}, {"measurement": "binding result", "setting": "MBP-Tin HD (WT)", "value": "binds"}]}]}
